In US20220378931A1 (Eli Lilly, published 2022):
Where a chain is given by its changes, count along the chain named.

B1: INS Analog 29 (other)
chain: FVSQHLCGSHLVEALRLVCGERGFHYTPKTGGGGGGGIVEQCCHSICSLYQLENYCGGGGGQGGGGQGGGGQGGGGQGGGGQEVQLLESGGGLVQPGGSLRLSCAASGRYIDETAVAWFRQAPGKEREFVAGIGGGVDITYYADSVKGRFTISRDNSKNTLYLQMNSLRPEDTAVYYCAARPGRPLITSKVADLYPYWGQGTLVTVSSPP
notes: single-chain insulin B-L2-A-L1-VHH fusion; also called Ex. 29
B2: INS Analog 25 (other)
chain: B1 chain with H25F, H44T
notes: single-chain insulin B-L2-A-L1-VHH fusion; also called Ex. 25
B3: INS Analog 30 (other)
chain: FVSQHLCGSHLVEALRLVCGERGFHYTPKTGGGGGGGIVEQCCHSICSLYQLENYCGPGPQPGPQPGPQPGPQPGPQPGPQPGPQPGPQEVQLLESGGGLVQPGGSLRLSCAASGRYIDETAVAWFRQAPGKEREFVAGIGGGVDITYYADSVKGRFTISRDNSKNTLYLQMNSLRPEDTAVYYCAARPGRPLITSKVADLYPYWGQGTLVTVSSPP
notes: single-chain insulin B-L2-A-L1-VHH fusion; also called Ex. 30
B4: INS Analog 26 (other)
chain: B3 chain with H25F, H44T
notes: single-chain insulin B-L2-A-L1-VHH fusion; also called Ex. 26

What follows are binders tested against T1, rabbit serum albumin (rabbit, UniProt P49065 25-608) (assay: SPR (Biacore 8K), albumin immobilised, 25 C).
T1 construct: bought protein, amine-coupled to a CM5 chip; also called Rabbit SA
Method: (§1) Immobilization of serum albumin to a Series S Sensor Chip CM5 surface is performed according to the manufacturer's instructions (Amine Coupling Kit BR-1000-50). Briefly, carboxyl groups on the sensor chip surfaces (flow cell 1 and 2) are activated by injecting 70 μL of a mixture containing 75 mg/ml EDC and 11.5 mg/ml NHS at 10 μL/min. Human, cynomolgus monkey, mouse, rat, pig, dog, cow and rabbit serum albumin are diluted in 10 mM NaOAc pH 4.0 (BR-1003-49) at 1, 1, 3, 1, 1, 1, 1 and 1 μg/mL and then injected over the activated chip surfaces (flow cell 2, […]) at 10 μL/min for 90 sec (human, mouse, rat, pig and cow serum albumin are obtained from Sigma Aldrich (St. Louis, Mo.); cynomolgus monkey serum albumin is obtained from Holzel Diagnostika (Cologne, Germany); dog serum albumin is obtained from Molecular Innovations (Novi, Mich.); and rabbit serum albumin is obtained from Fitzgerald Industries International (Acton, Mass.)). […] Excess reactive groups on the surfaces (flow cell 1 and 2) are deactivated by injecting 70 μL of 1 M ETA HCl—NaOH pH 8.5 at 10 μL/min.
(§2) 150 μL of sample is individually injecting sequentially across the immobilized serum albumins surface and then dissociates for 600 sec at 50 μL/min flow rate at 25° C. The surface is regenerated by injecting 10 mM glycine-HCl pH 1.5 (BR-1003-54) at 50 μL/min for 100 sec. The resulting sensorgrams are analyzed using Biacore 8K Insight Evaluation Software (version 2.0.15.12933) 1:1 binding kinetics or steady-state affinity model fitting to calculate the binding kinetic parameter association rate (ka), dissociation rate (kd), and equilibrium dissociation constant (KD)
B1: no binding (tested: up to 1000 nM). B2: no binding (tested: up to 1000 nM). B3: no binding (tested: up to 1000 nM). B4: no binding (tested: up to 1000 nM).

What follows are binders tested against T2, human insulin receptor isoform A with C-terminal C9 tag (human, UniProt P06213 28-1382) (assay: 125I-insulin competition SPA, hIR-A membranes, 0.1% BSA).
T2 construct: membranes of stably transfected HEK293 cells; also called hIR-A; human IR-A
Work on B1 yielded a Ki of 179 nM. B2 gave a Ki of 630 nM. B3 gave a Ki of 127 nM. B4 was tested, and the Ki was 389 nM.

These binders were tested against T2, human insulin receptor isoform A with … (assay: 125I-insulin competition SPA, hIR-A membranes, 0.1% HSA).
Method: (§3) The assays are performed with a SPA method using polyvinyltoluene (PVT) wheat germ agglutinin-coupled SPA beads (Perkin Elmer). Assay buffer contains 50 mM Tris-HCl, pH 7.5, 150 mM NaCl and either A) 0.1% w/v fatty-acid free BSA; B) 0.1% w/v fatty-acid free human serum albumin (HSA); C) 0.1% w/v rat serum albumin (RSA); or D) 0.001% Nonidet P-40 Substitute (NP-40, Roche Diagnostics). Ten-point concentration response curves using three-fold serial dilutions of test samples or controls are prepared in Assay Buffer using a Freedom/Evo robot (Tecan).
(§4) Percent specific inhibition (y-axis) is plotted versus the log concentration of compound (x-axis). […] Reported Ki values are shown as the geometric mean with the standard error (Delta Method Standard Error) and the number of independent replicate determinations used to calculate the geometric mean indicated by n.
Binder B1 has a Ki of 28.2 nM. In the case of B2, the Ki is reported as 125 nM. B3 showed a Ki of 17.2 nM. B4 was tested, and the Ki was 40.6 nM.

Each binder was assayed against T3, human insulin receptor isoform B with C-terminal C9 tag (human, UniProt P06213 28-1382) (assay: 125I-insulin competition SPA, hIR-B membranes, 0.1% BSA).
T3 construct: membranes of stably transfected HEK293 cells; also called hIR-B; human IR-B
Method: as §3, §4
For B1, the Ki was 124 nM. With B2 the Ki was 790 nM. B3 gave a Ki of 100 nM. For B4, the Ki was 405 nM.

What follows are binders tested against T3, human insulin receptor isoform B with … (assay: 125I-insulin competition SPA, hIR-B membranes, 0.1% HSA).
Method: as §3, §4
B1 showed a Ki of 38.1 nM. Binder B2 has a Ki of 279 nM. B3 gave a Ki of 24.5 nM. Work on B4 yielded a Ki of 105 nM.

These binders were tested against T4, human serum albumin (human, UniProt P02768 25-609) (assay: SPR (Biacore 8K), albumin immobilised, 25 C, 1:1 kinetics).
T4 construct: bought protein, amine-coupled to a CM5 chip; also called Human SA; HSA
Method: as §1, §2
B1 showed a Kd of 0.74 nM, a koff of 0.00013 s⁻¹ and a kon of 180000 M⁻¹ s⁻¹. B2 was tested, and the Kd was 0.32 nM, the koff was 8.4e-05 s⁻¹ and the kon was 260000 M⁻¹ s⁻¹. In the case of B3, the Kd is reported as 0.73 nM, the koff is reported as 0.00011 s⁻¹ and the kon is reported as 160000 M⁻¹ s⁻¹. Binder B4 has a Kd of 0.49 nM, a koff of 9.4e-05 s⁻¹ and a kon of 190000 M⁻¹ s⁻¹.

The binders below were run against T5, cynomolgus monkey serum albumin (cynomolgus monkey, UniProt A2V9Z4 25-608) in the same assay as above.
T5 construct: bought protein, amine-coupled to a CM5 chip; also called Cyno SA
Method: as §1, §2
B1 was tested, and the Kd was 4.4 nM, the koff was 0.00078 s⁻¹ and the kon was 180000 M⁻¹ s⁻¹. With B2 the Kd was 3.5 nM, the koff was 0.00079 s⁻¹ and the kon was 230000 M⁻¹ s⁻¹. For B3, the Kd was 4.3 nM, the koff was 0.00069 s⁻¹ and the kon was 160000 M⁻¹ s⁻¹. With B4 the Kd was 3.9 nM, the koff was 0.00069 s⁻¹ and the kon was 180000 M⁻¹ s⁻¹.

These binders were tested against T6, mouse serum albumin (mouse, UniProt P07724 25-608) in the same assay as above.
T6 construct: bought protein, amine-coupled to a CM5 chip; also called Mouse SA
Method: as §1, §2
B1 showed a Kd of 48 nM, a koff of 0.0087 s⁻¹ and a kon of 180000 M⁻¹ s⁻¹. Work on B2 yielded a Kd of 42 nM, a koff of 0.0092 s⁻¹ and a kon of 220000 M⁻¹ s⁻¹. B3 gave a Kd of 39 nM, a koff of 0.0071 s⁻¹ and a kon of 190000 M⁻¹ s⁻¹. In the case of B4, the Kd is reported as 35 nM, the koff is reported as 0.0069 s⁻¹ and the kon is reported as 200000 M⁻¹ s⁻¹.

These binders were tested against T7, rat serum albumin (rat, UniProt P02770 25-608) in the same assay as above.
T7 construct: bought protein, amine-coupled to a CM5 chip; also called Rat SA; RSA
Method: as §1, §2
B1 was tested, and the Kd was 32 nM, the koff was 0.0065 s⁻¹ and the kon was 200000 M⁻¹ s⁻¹. B2 gave a Kd of 34 nM, a koff of 0.0066 s⁻¹ and a kon of 200000 M⁻¹ s⁻¹. In the case of B3, the Kd is reported as 30 nM, the koff is reported as 0.0051 s⁻¹ and the kon is reported as 170000 M⁻¹ s⁻¹. Work on B4 yielded a Kd of 32 nM, a koff of 0.0056 s⁻¹ and a kon of 170000 M⁻¹ s⁻¹.

Each binder was assayed against T8, pig serum albumin (pig, UniProt P08835 25-607) in the same assay as above.
T8 construct: bought protein, amine-coupled to a CM5 chip; also called Pig SA
Method: as §1, §2
Work on B1 yielded a Kd of 86 nM, a koff of 0.013 s⁻¹ and a kon of 150000 M⁻¹ s⁻¹. B2 gave a Kd of 90 nM, a koff of 0.011 s⁻¹ and a kon of 130000 M⁻¹ s⁻¹. In the case of B3, the Kd is reported as 80 nM, the koff is reported as 0.0092 s⁻¹ and the kon is reported as 110000 M⁻¹ s⁻¹. For B4, the Kd was 87 nM, the koff was 0.0098 s⁻¹ and the kon was 110000 M⁻¹ s⁻¹.

What follows are binders tested against T9, dog serum albumin (dog, UniProt P49822 25-608) in the same assay as above.
T9 construct: bought protein, amine-coupled to a CM5 chip; also called Dog SA
Method: as §1, §2
B1 showed a Kd of 16 nM, a koff of 0.0032 s⁻¹ and a kon of 190000 M⁻¹ s⁻¹. Work on B2 yielded a Kd of 16 nM, a koff of 0.0033 s⁻¹ and a kon of 200000 M⁻¹ s⁻¹. Binder B3 has a Kd of 13 nM, a koff of 0.0022 s⁻¹ and a kon of 170000 M⁻¹ s⁻¹. In the case of B4, the Kd is reported as 13 nM, the koff is reported as 0.0023 s⁻¹ and the kon is reported as 170000 M⁻¹ s⁻¹.

Each binder was assayed against T2, human insulin receptor isoform A with … (assay: 125I-insulin competition SPA, hIR-A membranes, 0.001% NP-40).
Work on B1 yielded a Ki of 34 nM. B2 was tested, and the Ki was 174 nM. B3 showed a Ki of 49.3 nM. B4 gave a Ki of 105 nM.

These binders were tested against T3, human insulin receptor isoform B with … (assay: 125I-insulin competition SPA, hIR-B membranes, 0.001% NP-40).
Method: as §3, §4
In the case of B1, the Ki is reported as 62.5 nM. For B2, the Ki was 641 nM. Work on B3 yielded a Ki of 60 nM. B4 showed a Ki of 214 nM.

What follows are binders tested against T10, cow serum albumin (cow, UniProt P02769 25-607) (assay: SPR (Biacore 8K), albumin immobilised, 25 C, steady-state affinity).
T10 construct: bought protein, amine-coupled to a CM5 chip; also called Cow SA; Bovine SA
For B2, the Kd was 390 nM.

Molecular target: T10, cow serum albumin
Assay: as above
Remark: another data set of the same source
Method: as §1, §2
Work on B1 yielded a Kd of 380 nM. B3 was tested, and the Kd was 370 nM. With B4 the Kd was 400 nM.
